# Reference: article PMC9324360
# Key:
# Assay in all cases: MST
# Settings in all cases: 0.5 mM Mg2+; MST: 10 mM Tris-HCl pH 8.5, 0.5 mM MgSO4, 50 mM KCl, 10 mM (NH4)2SO4, 0.05% Tween 20; 1 nM oligo; 10 min at 55 °C, measured at 25 °C
# [1] = test system: Tt72 pol D78A/D615A (Thermus thermophilus MAT72 phage vB_Tt72)
# [2] = test system: Tt72 pol D78A (exo-) (Thermus thermophilus MAT72 phage vB_Tt72)
# [3] = test system: Tt72 pol D78A/E389A (Thermus thermophilus MAT72 phage vB_Tt72)
# [4] = test system: Tt72 pol L27A (Thermus thermophilus MAT72 phage vB_Tt72)
# [5] = test system: Tt72 pol D78A/D384A (Thermus thermophilus MAT72 phage vB_Tt72)
# [6] = test system: Tt72 pol Y180A (Thermus thermophilus MAT72 phage vB_Tt72)
# [7] = test system: Tt72 DNA polymerase WT (Thermus thermophilus MAT72 phage vB_Tt72)
# [8] = test system: Tt72 pol D15A (Thermus thermophilus MAT72 phage vB_Tt72)
# [9] = test system: Tt72 pol D184A (Thermus thermophilus MAT72 phage vB_Tt72)
# [10] = test system: Tt72 pol D78A/S616A (Thermus thermophilus MAT72 phage vB_Tt72)
# [11] = test system: Tt72 pol E17A (Thermus thermophilus MAT72 phage vB_Tt72)
sequence,measurement,setting,value
TGGCTGCTTCTAAGCCAACATCCT / CTAGTGAGGATGTTGGCTTAGAAGCAGCCA [polTt72-Cy5/polTt72-long primer/template],Kd,[1],78 nM
same,Kd,[2],109 nM
same,Kd,[3],68 nM
same,Kd,[4],32 nM
same,Kd,[5],100 nM
same,Kd,[6],229 nM
same,Kd,[7],2 nM
same,Kd,[8],232 nM
same,Kd,[9],144 nM
same,Kd,[10],129 nM
same,Kd,[11],529 nM
